Like-named read-outs stand apart in the source and are kept apart here. Positions of bridges follow the written chain, without caps; N, C: chain ends. Non-standard residues stand in square brackets, D forms with d. Residues, ends and D or L forms follow the SMILES beside them. *: point of attachment. DOTA = O=C(O)CN1CCN(CC(=O)O)CCN(CC(=O)*)CCN(CC(=O)O)CC1

The data set in a line: Ex vivo biodistribution screen of 111In-labeled DOTA-TATE derivatives in normal mice. On the set-up: species or system athymic nude mice. Particulars: 2 h post-injection; for tissue uptake at 2 h: athymic nude, mouse, iv, 1 ug per mouse, total radioactivity; for Relative kidney retention, % rel. to DOTA-TATE: normal mice, 111In-DOTA-TATE set as 100%. How it is done:
The panel of 10 compounds were then tested in an initial biodistribution screen of 9 organs assessed in non-tumor-bearing mice at specific timepoints following administration of the radioconjugates. Each agent was initially labeled with ^111In, a long-lived gamma-emitting radioisotope suitable for biodistribution studies, with high radiochemical yields and purity (Fig. S12). The compounds were then dosed (1.55 ± 0.12 MBq; 1 μg per mouse) in healthy athymic nude mice via intravenous (i.v.) injection in phosphate-buffered saline (PBS; vehicle). After 2 hours, the mice were sacrificed and ex vivo biodistribution analysis was performed (Fig. 2). […] This was an expected finding because this variant was designed to bind serum albumin.
Radiolabeling and In Vivo Evaluation of DOTA-TATE Variants:
Biodistribution, PET Quantification, and Dosimetry
Radiolabeling: To perform the initial biodistribution screen, radiolabeling of 10 compounds, including DOTA-TATE, was carried out using 111In (Cardinal Health, Arbutus, MD, USA), an affordable and readily available gamma -emitting radioisotope with a moderate half -life (2.83 days), which affords efficient DOTA radiolabeling and facilitates handling. 111InCl3 (28 – 36 MBq) was diluted with 0.4 M NH 4OAc buffer (pH 5.2) and combined with DOTA -TATE variants (20 μg). The solution was mixed well and then incubated at 90 °C for 30 min.
Radiolabeling efficiency and radiochemical purity were determined by radio -TLC and radio - HPLC. Radiochemical yield was >95% and the material was used without further purification.
The specific activity was 1.55 ± 0.12 TBq/g (41.9 ± 3.2 Ci/g). […]
Radio-instant thin-layer chromatography (radio-iTLC) was performed using silicic acid-impregnated glass microfiber paper strips (iTLC-SA, Varian, Lake Forest, CA, USA) as the stationary phase, and 50 mM EDTA in 100 mM NH4OAc (pH 5.5) as the mobile phase, analyzed with a radio-TLC scanner (AR-2000, Eckert-Ziegler, Wilmington, MA, USA). For Ac-225, equilibration was allowed for at least 12 hours before scanning the TLC strips to confirm initial scans. Radio-HPLC analysis (Agilent 1260 Infinity II, Agilent Technologies Inc., Santa Clara, CA, USA) was conducted on a TSK- Octadecyl-4PW column (5 µm, 4.6 mm ID × 15 cm, Tosoh
Co. Tokyo, Japan) with gradient elution using 0.1% trifluoroacetic acid in water as mobile phase A and 0.1% trifluoroacetic acid in acetonitrile as Mobile phase B. The elution sequence was 0-5 […]
PET imaging and biodistribution: For initial biodistribution screen studies, normal mice were administered 1.4 – 1.8 MBq (1 μg) of 111In-DOTA-TATE variants via tail vein injection and biodistribution studies were conducted at 2 hours post -injection (n = 2 – 4 per cohort).
For studies involving three variants (DOTA -TATE, DOTA-MVK(ε)-TATE, and DOTA-β-Gal-TATE), AR42J cells (5 × 10^6 cells per mouse) were subcutaneously inoculated into the right shoulder of the mice. Tumors were allowed to grow for 3 weeks, reaching a volume of 100 –200 mm³ before being used in subsequent experiments. For biodistribution or PET imaging studies, mice bearing subcutaneous AR42J tumors were administered 1.4 – 1.8 MBq (1 μg) of 111In-labeled DOTA-TATE variants or 2.7 – 4.9 MBq (1 μg) of 86Y-labeled DOTA-TATE variants via tail vein injection. Biodistribution studies with 111In-labeled DOTA -TATE variants were performed 1 hour post -injection (n = 3 per cohort), while studies with 86Y-labeled DOTA-TATE variants were conducted at 1, 4, and 24 hours post -injection (n = 3 per cohort). Mice were euthanized by CO2 asphyxiation, and 10 tissues, including tumors, were collected. All samples were weighed and counted on a gamma counter (2480 Wizard 3, Perkin Elmer Inc., Waltham, MA, USA). Results are presented as percentage of injected activity per gram (%IA/g) and mean values ± standard deviations.
PET imaging to assess the uptake of three 86Y-labeled DOTA-TATE variants (2.7 – 4.9 MBq, 1 […]

Setting [1] is: blood, normal athymic nude mice, i.v. 1 μg (1.4–1.8 MBq), ex vivo gamma counting, mean, n = 2–4, read-out: Blood uptake.
Where [2] appears, read: femur, normal athymic nude mice, i.v. 1 μg, ex vivo, mean, n = 2–4, read-out: Femur uptake.
Where [3] appears, read: heart, normal athymic nude mice, i.v. 1 μg, ex vivo, mean, n = 2–4, read-out: Heart uptake.
Where [4] appears, read: intestine, normal athymic nude mice, i.v. 1 μg, ex vivo, mean, n = 2–4, read-out: Intestine uptake.
[5] abbreviates: liver, normal athymic nude mice, i.v. 1 μg, ex vivo, mean, n = 2–4, read-out: Liver uptake.
Setting [6] is: lung, normal athymic nude mice, i.v. 1 μg, ex vivo, mean, n = 2–4, read-out: Lung uptake.
Where [7] appears, read: muscle, normal athymic nude mice, i.v. 1 μg, ex vivo, mean, n = 2–4, read-out: Muscle uptake.
Setting [8] is: spleen, normal athymic nude mice, i.v. 1 μg, ex vivo, mean, n = 2–4, read-out: Spleen uptake.

Turning to `C[C@@H](O)[C@H](NC(=O)[C@@H]1CSSC[C@H](NC(=O)[C@@H](Cc2ccccc2)NC(=O)[C@@H](Cc2ccc(O)cc2)NC(=O)CNC(=O)CN2CCN(CC(=O)O)CCN(CC(=O)O)CCN(CC(=O)O)CC2)C(=O)N[C@@H](Cc2ccc(O)cc2)C(=O)N[C@H](Cc2c[nH]c3ccccc23)C(=O)N[C@@H](CCCCN)C(=O)N[C@@H]([C@@H](C)O)C(=O)N1)C(=O)O` [^111In-DOTA-GY*-TATE, metal not drawn] ({DOTA}-G[dY][dF]CY[dW]KTCT-OH; disulfide 4-9), the “Relative kidney retention, % rel. to DOTA-TATE” value is 865%. For the same molecule, the tissue uptake at 2 h under setting [1] was determined as 0.06 %ID/g. Under setting [2], the tissue uptake at 2 h was found to be 0.1 %ID/g. For the same molecule, the tissue uptake at 2 h under setting [3] was found to be 0.06 %ID/g. Moreover, under setting [4], the tissue uptake at 2 h was determined as 0.63 %ID/g. Moreover, the tissue uptake at 2 h under setting [5] came out at 0.17 %ID/g. Also, the tissue uptake at 2 h under setting [6] was found to be 1.17 %ID/g. Moreover, the tissue uptake at 2 h under setting [7] came out at 0.02 %ID/g. For the same molecule, the tissue uptake at 2 h under setting [8] amounted to 0.16 %ID/g.

For `C[C@@H](O)[C@H](NC(=O)[C@@H]1CSSC[C@H](NC(=O)[C@@H](Cc2ccccc2)NC(=O)[C@H](Cc2ccc(O)cc2)NC(=O)CNC(=O)CN2CCN(CC(=O)O)CCN(CC(=O)O)CCN(CC(=O)O)CC2)C(=O)N[C@@H](Cc2ccc(O)cc2)C(=O)N[C@H](Cc2c[nH]c3ccccc23)C(=O)N[C@@H](CCCCN)C(=O)N[C@@H]([C@@H](C)O)C(=O)N1)C(=O)O` [^111In-DOTA-GY-TATE, metal not drawn] ({DOTA}-GY[dF]CY[dW]KTCT-OH; disulfide 4-9), the “Relative kidney retention, % rel. to DOTA-TATE” value was 297%. Moreover, the tissue uptake at 2 h under setting [1] stood at 0.09 %ID/g. In addition, the tissue uptake at 2 h under setting [2] came to 0.14 %ID/g. In addition, the tissue uptake at 2 h under setting [3] was 0.09 %ID/g. Further, the tissue uptake at 2 h under setting [4] stood at 0.74 %ID/g. Also, the tissue uptake at 2 h under setting [5] is 0.18 %ID/g. Moreover, the tissue uptake at 2 h under setting [6] is 1.07 %ID/g. Further, the tissue uptake at 2 h under setting [7] worked out at 0.03 %ID/g. Also, the tissue uptake at 2 h under setting [8] turned out to be 0.17 %ID/g.

As for `C[C@@H](O)[C@H](NC(=O)[C@@H]1CSSC[C@H](NC(=O)[C@@H](Cc2ccccc2)NC(=O)CCCC(=O)Nc2cc(COC(=O)N(C)CCNC(=O)CN3CCN(CC(=O)O)CCN(CC(=O)O)CCN(CC(=O)O)CC3)ccc2O[C@@H]2O[C@H](C(=O)O)[C@@H](O)[C@H](O)[C@H]2O)C(=O)N[C@@H](Cc2ccc(O)cc2)C(=O)N[C@H](Cc2c[nH]c3ccccc23)C(=O)N[C@@H](CCCCN)C(=O)N[C@@H]([C@@H](C)O)C(=O)N1)C(=O)O` [^111In-DOTA-GlcA-TATE, metal not drawn], the “Relative kidney retention, % rel. to DOTA-TATE” value is recorded as 147%. Besides, the tissue uptake at 2 h under setting [1] was 0.08 %ID/g. The tissue uptake at 2 h under setting [2] is 0.1 %ID/g. Further, under setting [3], the tissue uptake at 2 h stood at 0.08 %ID/g. Moreover, the tissue uptake at 2 h under setting [4] stood at 0.44 %ID/g. The tissue uptake at 2 h (kidney, normal athymic nude mice, i.v. 1 μg, ex vivo, mean (± SD), n = 2–4, read-out: Kidney uptake) worked out at 8.88 %ID/g. Besides, under setting [5], the tissue uptake at 2 h amounted to 0.13 %ID/g. In addition, the tissue uptake at 2 h under setting [6] turned out to be 0.19 %ID/g. Further, the tissue uptake at 2 h under setting [7] is 0.03 %ID/g. The tissue uptake at 2 h under setting [8] stood at 0.08 %ID/g.

Consider `CSCC[C@H](NC(=O)CN1CCN(CC(=O)O)CCN(CC(=O)O)CCN(CC(=O)O)CC1)C(=O)N[C@H](C(=O)N[C@@H](CCCCN)C(=O)N[C@H](Cc1ccccc1)C(=O)N[C@H]1CSSC[C@@H](C(=O)N[C@H](C(=O)O)[C@@H](C)O)NC(=O)[C@H]([C@@H](C)O)NC(=O)[C@H](CCCCN)NC(=O)[C@@H](Cc2c[nH]c3ccccc23)NC(=O)[C@H](Cc2ccc(O)cc2)NC1=O)C(C)C` [^111In-DOTA-MVK-TATE, metal not drawn] ({DOTA}-MVK[dF]CY[dW]KTCT-OH; disulfide 5-10), for which the “Relative kidney retention, % rel. to DOTA-TATE” value is on record as 1251%. Further, the tissue uptake at 2 h under setting [1] is 0.09 %ID/g. Moreover, the tissue uptake at 2 h under setting [2] was 0.25 %ID/g. Under setting [3], the tissue uptake at 2 h came to 0.07 %ID/g. For the same molecule, the tissue uptake at 2 h under setting [4] was determined as 0.78 %ID/g. Further, under setting [5], the tissue uptake at 2 h was 0.25 %ID/g. Under setting [6], the tissue uptake at 2 h stood at 0.51 %ID/g. Moreover, under setting [7], the tissue uptake at 2 h was 0.02 %ID/g. Further, the tissue uptake at 2 h under setting [8] stood at 0.18 %ID/g. This molecule had a Kidney uptake (normal athymic nude mice, i.v. 1 μg, ex vivo, mean (± SD), n = 2–4) of 75.65 %IA/g.

For the molecule `C[C@@H](O)[C@H](NC(=O)[C@@H]1CSSC[C@H](NC(=O)[C@@H](Cc2ccccc2)NC(=O)CCCC(=O)Nc2cc(COC(=O)N(C)CCNC(=O)CN3CCN(CC(=O)O)CCN(CC(=O)O)CCN(CC(=O)O)CC3)ccc2O[C@@H]2O[C@H](CO)[C@@H](O)[C@H](O)[C@H]2O)C(=O)N[C@@H](Cc2ccc(O)cc2)C(=O)N[C@H](Cc2c[nH]c3ccccc23)C(=O)N[C@@H](CCCCN)C(=O)N[C@@H]([C@@H](C)O)C(=O)N1)C(=O)O` [^111In-DOTA-β-Glu-TATE, metal not drawn], the “Relative kidney retention, % rel. to DOTA-TATE” value was 105%. The tissue uptake at 2 h (in vivo, normal athymic nude mice, i.v. 1 μg (1.4–1.8 MBq), ex vivo gamma counting, mean, n = 2–4, read-out: Blood uptake) is 0.09 %ID/g. Further, under “in vivo, normal athymic nude mice, i.v. 1 μg, ex vivo, mean (± SD), n = 2–4, read-out: Kidney uptake”, the tissue uptake at 2 h came to 6.34 %ID/g. Besides, under “in vivo, normal athymic nude mice, i.v. 1 μg, ex vivo, mean, n = 2–4, read-out: Femur uptake”, the tissue uptake at 2 h is 0.21 %ID/g. In addition, the tissue uptake at 2 h (in vivo, normal athymic nude mice, i.v. 1 μg, ex vivo, mean, n = 2–4, read-out: Heart uptake) came to 0.07 %ID/g. The tissue uptake at 2 h (in vivo, normal athymic nude mice, i.v. 1 μg, ex vivo, mean, n = 2–4, read-out: Intestine uptake) amounted to 1.07 %ID/g. The tissue uptake at 2 h (in vivo, normal athymic nude mice, i.v. 1 μg, ex vivo, mean, n = 2–4, read-out: Liver uptake) is 0.19 %ID/g. Besides, the tissue uptake at 2 h (in vivo, normal athymic nude mice, i.v. 1 μg, ex vivo, mean, n = 2–4, read-out: Lung uptake) was 0.51 %ID/g. The tissue uptake at 2 h (in vivo, normal athymic nude mice, i.v. 1 μg, ex vivo, mean, n = 2–4, read-out: Muscle uptake) was found to be 0.03 %ID/g. Besides, the tissue uptake at 2 h (in vivo, normal athymic nude mice, i.v. 1 μg, ex vivo, mean, n = 2–4, read-out: Spleen uptake) is 0.16 %ID/g.

For the origin of these results see doi:10.1101/2025.09.11.675134, “Biodistribution-Driven Discovery Identifies a Glycosidase-Cleavable Linker to Reprogram Radiotheranostics” (bioRxiv, 2025).
